The text below walks through data of article PMC8360832, “Butyryl/Caproyl-CoA:Acetate CoA-transferase: cloning, expression and characterization of the key enzyme involved in medium-chain fatty acid biosynthesis” (Bioscience Reports, 2021).

One may read the Km as the concentration of substrate that gives half-maximal velocity. Broadly, the kcat is the number of substrate molecules converted per active site and unit of time at saturation. One may read the kcat/Km as the turnover number divided by the Michaelis constant.

Substrate in this data set: CCCC(=O)SCCNC(=O)CCNC(=O)[C@H](O)C(C)(C)COP(=O)(O)OP(=O)(O)OC[C@H]1O[C@@H](n2cnc3c(N)ncnc32)[C@H](O)[C@@H]1OP(=O)(O)O
Kind of data set: purified protein. The data set is classed as biochemical, Clostridium tyrobutyricum. The conditions noted are these: 200 mM sodium acetate, 100 mM potassium phosphate pH 7, 25 °C.

B1: BEY8-CoAT (BCoAT) (Clostridium tyrobutyricum DIVETGP) (protein)
chain: MSFEELYKSKVVSADEAVSHIKSGDKIVFGHACAEPQVLLNALVKNKEKYKNVELYHMIPKGETNYAEPGVEKYIHDNSFFTGKGTSEAIQEGRADFIPVFFSEIPRLFKKGYIPVDVALIEVSKPDEHGYCSFGVSNDYIHAGAECAKLVIAEVNENMPRVFGNNFIHVSDIDYIVESSRPVVEMQPSKIGDVEKAIGKYCASLVEDGSTLQLGIGAIPDAVLLFLKDKKDLGIHSEMISDGVVELVKAGVITNKKKTLHPGKIVVTFLMGTKKLYDFIDNNPEVESHPVDYVNNPTVIMKNCKMVCINSCVEIDLMGQICSESIGLKQISGVGGQIDFTRGASMAEDGKSIIAIPSTAAHGKVSRIVPFLNQGAAITTSRNDVHYVITEYGIAQLRGKTLKQRARELIK
notes: full-length, His tag (N-terminal), pET28a, E. coli BL21 (DE3), Ni-NTA; gene 1233 bp, 46 kDa
Regarding B1, the Km is on record as 370 ± 4.1 µM, the kcat worked out at 0.232 ± 0.0117 s⁻¹ and the kcat/Km came to 628.3 ± 3.33 M⁻¹ s⁻¹.
